Results on two molecules are retold here after paper PMC4012986, “The Dimerization Domain in DapE Enzymes Is required for Catalysis” (PLoS ONE, 2014).

Data set [1] relates to N[C@@H](CCC[C@H](NC(=O)CCC(=O)O)C(=O)O)C(=O)O. In words: purified protein. Conditions: 50 mM phosphate pH 7.5, 25 °C, two equivalents Zn(II).
Data set [2] concerns the molecule itself. In words: dynamic light scattering; DynaPro-801, 21°C; 2.0 mg/ml in crystallization buffer (250 mM NaCl, 20 mM HEPES pH 8.0, 1 mM TCEP).
Substrate in the data set “purified protein”: N[C@@H](CCC[C@H](NC(=O)CCC(=O)O)C(=O)O)C(=O)O
In words: purified protein. As to conditions: 50 mM phosphate pH 7.5, 25 °C, two equivalents Zn(II). The source holds these as a separate data set.

As for “WT-VcDapE (Vibrio cholerae O1 biovar El Tor str. N16961)”, in data set [1], the Km came out at 1200 ± 200 µM and the kcat amounted to 80 ± 10 s⁻¹.

B1: N-succinyl-L,L-diaminopimelic acid desuccinylase (DapE) from Haemophilus influenzae, wild type, full length (enzyme)
chain: MKEKVVSLAQDLIRRPSISPNDEGCQQIIAERLEKLGFQIEWMPFNDTLNLWAKHGTSEPVIAFAGHTDVVPTGDENQWSSPPFSAEIIDGMLYGRGAADMKGSLAAMIVAAEEYVKANPNHKGTIALLITSDEEATAKDGTIHVVETLMARDEKITYCMVGEPSSAKNLGDVVKNGRRGSITGNLYIQGIQGHVAYPHLAENPIHKAALFLQELTTYQWDKGNEFFPPTSLQIANIHAGTGSNNVIPAELYIQFNLRYCTEVTDEIIKQKVAEMLEKHNLKYRIEWNLSGKPFLTKPGKLLDSITSAIEETIGITPKAETGGGTSDGRFIALMGAEVVEFGPLNSTIHKVNECVSVEDLGKCGEIYHKMLVNLLDS
notes: also called HiDapE; WT-HiDapE; source: E. coli BL21(DE3) derivative with pMAGIC; purification of the wild type not described
As for B1, the binding result in data set [2] was “binds”. In the data set “purified protein”, the Km came out at 800 ± 100 µM and the kcat was 114 ± 10 s⁻¹.
